Results on six molecules are retold here after patent US20220064327A1 (KYMAB, published 2022).

Where two headings read alike, the source gives them in different places.

As a reminder, the Kd is the concentration at which binding is half-saturated. High values mean lower affinity, low ones higher affinity. A word on the koff: it is a measure of how fast the partners let go of each other. Usually kon stands for the rate constant with which the complex forms.

Assay [1] addresses T1, human factor X (human, UniProt P00742 41-179; P00742 183-488). Briefly: cell-based or functional assay.
Assay [2] concerns the target T2, human factor IX (human, UniProt P00740 47-461, 12 glutamic acid residues of the GLA domain are post-translationally γ-carboxylated).
T2 construct: Zymogen used as analyte in SPR, reconstituted at 1 mg/ml; also called FIX; Human FIX (MW ~55 KDa)
Briefly: SPR, IgG captured on anti-human IgG Fc, human FIX as analyte. Here is the method: (§1) SPR was used to determine the binding affinity (KD) to FIX or FX respectively, the kinetic constants on-rate (kₒₙ) and off-rate (koff). Analyses was performed using a Biacore 8K (GE Healthcare) system.
(§2) Monospecific antibodies (referred as ligand) which had been purified on Protein A were captured onto the anti-human IgG Fc CM4 surface at approximately 2 μg/ml. The ligands were injected for 60 seconds at 10 μl/min in all the active channels of all 8 flow channels. The run was performed at 25° C. using neutral pH HBS-P 1X+CaCl₂ 2.5 mM as running buffer.
(§3) Human FIX (MW ˜55 KDa) or human FX (MW ˜58 KDa) was reconstituted at 1 mg/ml in the running buffer and used as analyte. The analyte was injected in multiple cycle kinetics (MCK) mode at 3 concentrations (1.5 μM, 500 nM and 166.7 nM) with 120 seconds association phase and 200 seconds (for FIX) or 300 seconds (for FX) dissociation phase, at flow rate […] in both active and reference channels. Three injections of 10 mM Glycine pH 1.5 for 60 sec. at 10 μl/min were used for the regeneration phase.

Assay [3] has as its target T2, human factor IX. The assay is described as above. This is another data set of the same source.
Assay [4] has as its target T1, human factor X. Briefly: SPR, IgG captured on anti-human IgG Fc, human FX as analyte. Here is the method:
as §1, §2, §3
A general note: SPR reads the build-up and loss of mass on a sensor chip optically.

Assay [5] concerns the target T1, human factor X. Briefly: SPR as in Example 10, human FX as analyte.
The target in assay [6] is T1, human factor X. Briefly: SPR as in Example 10, human FX as analyte. The protocol: as §2, §3
Affinity and kinetics of purified anti-FIX and anti-FX antibodies for binding to their respective antigens was determined by SPR as described in Example 10 above.
The source holds these as a separate data set.

For assay [7], the target named is T1, human factor X. Briefly: SPR, IgG captured on anti-human IgG Fc, human FX as analyte. This is another data set of the same source.

T1 sequence (P00742 41-179, chain 1 of 2): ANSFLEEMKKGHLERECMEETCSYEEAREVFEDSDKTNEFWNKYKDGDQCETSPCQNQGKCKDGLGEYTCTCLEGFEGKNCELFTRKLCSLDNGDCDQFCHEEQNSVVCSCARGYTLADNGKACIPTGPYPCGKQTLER
T1 sequence (P00742 183-488, chain 2 of 2): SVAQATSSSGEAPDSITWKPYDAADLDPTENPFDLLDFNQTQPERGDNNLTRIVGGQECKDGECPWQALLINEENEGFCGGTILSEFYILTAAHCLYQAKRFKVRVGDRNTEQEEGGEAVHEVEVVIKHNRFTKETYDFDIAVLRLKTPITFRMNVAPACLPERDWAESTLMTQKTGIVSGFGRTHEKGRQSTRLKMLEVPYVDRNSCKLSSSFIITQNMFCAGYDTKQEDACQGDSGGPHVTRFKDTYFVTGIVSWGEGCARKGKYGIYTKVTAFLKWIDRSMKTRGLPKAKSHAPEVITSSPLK
T2 sequence (P00740 47-461 limits assumed): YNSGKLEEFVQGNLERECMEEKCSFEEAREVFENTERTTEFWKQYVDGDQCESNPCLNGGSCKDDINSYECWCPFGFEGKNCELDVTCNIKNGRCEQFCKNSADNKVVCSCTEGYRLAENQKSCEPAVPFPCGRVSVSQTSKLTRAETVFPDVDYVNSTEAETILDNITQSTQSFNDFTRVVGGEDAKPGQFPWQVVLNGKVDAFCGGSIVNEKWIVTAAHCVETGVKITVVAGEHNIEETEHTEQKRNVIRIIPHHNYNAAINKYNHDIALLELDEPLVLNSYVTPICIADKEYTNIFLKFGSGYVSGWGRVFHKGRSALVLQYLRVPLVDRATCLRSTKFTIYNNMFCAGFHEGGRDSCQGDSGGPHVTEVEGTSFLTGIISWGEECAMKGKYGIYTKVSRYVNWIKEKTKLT

B1: IXAX-1280.0999.0325 (bispecific antibody, human IgG4 S228P, lambda)
heavy 1: EVQLVESGGGFVQPGGSLRLSCAVSGFRFNSYWMSWVRQAPGKGLEWVANINQDGSRKFYVASVKGRFTMSRDNAKKSVYVQMNSLRAEDTAVYYCAREGYSSIKYYGMDVWGQGTTVTVSSASTKGPSVFPLAPCSRSTSESTAALGCLVKDYFPEPVTVSWNSGALTSGVHTFPAVLQSSGLYSLSSVVTVPSSSLGTQTYTCNVDHKPSNTKVDKRVESKYGPPCPPCPAPEFLGGPSVFLFPPKPKDTLMISRTPEVTCVVVDVSQEDPEVQFNWYVDGVEVHNAKTKPREEQYNSTYRVVSVLTVLHQDWLNGKEYKCKVSNKGLPSSIEKTISKAKGQPREPQVYTLPPSQEEMTKNQVSLTCLVKGFYPSDIAVEWESNGQPENNYKTTPPVLDSDGSFFLYSKLTVDKSRWQEGNVFSCSVMHEALHNHYTQESLSLSP
heavy 2: QVQLIQSGAKVKKPGASVKVSCKASRYKFTSYYMHWVRQAPGQGLEWMGIINPKSGSTSYAQKFQGRVTMTRDTSTSTVYMELSSLRSEDTAVYYCARDGYGSFSRLIQLWGQGTLVTVSSASTKGPSVFPLAPCSRSTSESTAALGCLVKDYFPEPVTVSWNSGALTSGVHTFPAVLQSSGLYSLSSVVTVPSSSLGTQTYTCNVDHKPSNTKVDKRVESKYGPPCPPCPAPEFLGGPSVFLFPPKPKDTLMISRTPEVTCVVVDVSQEDPEVQFNWYVDGVEVHNAKTKPREEQYNSTYRVVSVLTVLHQDWLNGKEYKCKVSNKGLPSSIEKTISKAKGQPREPQVYTLPPSQKEMTKNQVSLTCLVKGFYPSDIAVEWESNGQPENNYKTTPPVLDSDGSFFLYSKLTVDKSRWQEGNVFSCSVMHEALHNHYTQKSLSLSP
light: YVLTQPPSVSVAPGETARITCGGDNIGRKSVYWYQQKSGQAPVLVIYYDSDRPSGIPERFSGSNSGNTATLTISRVEAGDEADYYCQVWDGSSDHWVFGGGTKLTVLGQPKAAPSVTLFPPSSEELQANKATLVCLISDFYPGAVTVAWKADSSPVKAGVETTTPSKQSNNKYAASSYLSLTPEQWKSHKSYSCQVTHEGSTVEKTVAPTECS
For B1, the “EC50, kinetic FXase assay (FIXa-catalysed activation of FX to FXa, OD405 nm at 600 s)” value in the assay with human factor X [1] is 3.99 nM.

B2: NINA-0438.0128 (antibody, V domains shown)
VH: EVQLVESGGGFVQPGGSLRLSCAVSGFTFNSYWMSWVRQAPGKGLEWVANINQDGSEKFYVASVKGRFTMSRDNAKKSVYVQMNSLRAEDTAVYYCAREGYSSLSYYGMDVWGQGTTVTVSS
VL: SYVLTQPPSVSVAPGETARITCGGDNIGRKSVYWYQQKSGQAPVLVIYYDSDRPSGIPERFSGSNSGNTATLTISRVEAGDEADYYCQVWDGSSDHWVFGGGTKLTVL
Regarding B2, in the assay with human factor IX [2], the Kd was 293 nM, the koff is 0.0673 s⁻¹ and the association rate constant (kon) was 230000 M⁻¹ s⁻¹. Further, the dissociation constant (Kd) in the assay with human factor IX [3] is 300 nM.

B3: NINA-0460.0128 (antibody, V domains shown)
VH: EVQLVESGGGFVQPGGSLRLSCAVSGFTFNSYWMSWVRQAPGKGLEWVANINQDGSEKFYVASVKGRFTMSRDNAKKSVYVQMNSLRAEDTAVYYCAREGYSSSQYYGMDVWGQGTTVTVSS
VL: SYVLTQPPSVSVAPGETARITCGGDNIGRKSVYWYQQKSGQAPVLVIYYDSDRPSGIPERFSGSNSGNTATLTISRVEAGDEADYYCQVWDGSSDHWVFGGGTKLTVL
In the assay with human factor IX [2], B3 showed a Kd of 181 nM, a koff of 0.0318 s⁻¹ and a kon of 175000 M⁻¹ s⁻¹. Binding in the assay with human factor IX [3] was characterised by a dissociation constant (Kd) of 180 nM.

B4: TINA-0200.0128 (antibody, V domains shown)
VH: QVQLVQSGAEVKKPGASVKVSCKASRYSFTSYYLHWVRQAPGQGLEWMGIINPKTGDTSYAQKFQGRVTMTRDTSTTTVYMELSSLRSEDTAVYYCARDGYGSSARCLQLWGQGTLVTVSS
VL: SYVLTQPPSVSVAPGETARITCGGDNIGRKSVYWYQQKSGQAPVLVIYYDSDRPSGIPERFSGSNSGNTATLTISRVEAGDEADYYCQVWDGSSDHWVFGGGTKLTVL
notes: Monospecific IgG4PE
Consider B4, for which, in the assay with human factor X [4], binding was put at a Kd of 1130 nM, the koff worked out at 0.115 s⁻¹ and the kon is 103000 M⁻¹ s⁻¹. The Kd in the assay with human factor X [5] is 300 to 3000 nM. In the assay with human factor X [6], binding was put at a Kd of 2520 nM, the off-rate (koff) came out at 0.112 s⁻¹ and the kon turned out to be 44300 M⁻¹ s⁻¹.

B5: TINA-0213.0128 (antibody, V domains shown)
VH: QVQLVQSGAEVKKTGASVKVSCKASRYSFTSYYMHWVRQAPGQGLEWMGIINPKSGTTSYAQKFQGRVTMTRDTSTSTVYMELSSLRSEDTAVYYCARDGYGSSSRCLQLWGQGTLVTVSS
VL: SYVLTQPPSVSVAPGETARITCGGDNIGRKSVYWYQQKSGQAPVLVIYYDSDRPSGIPERFSGSNSGNTATLTISRVEAGDEADYYCQVWDGSSDHWVFGGGTKLTVL
notes: Monospecific IgG4PE
In the assay with human factor X [4], B5 returned a Kd of 1370 nM, a dissociation rate constant (koff) of 0.133 s⁻¹ and a kon of 96900 M⁻¹ s⁻¹. The molecule also displayed a Kd with human factor X [7] of 1400 nM.

B6: TINA-0205.0128 (antibody, V domains shown)
VH: QVQLVQSGAEVKKPGASVKVSCKASRYSFTSYYMHWVRQAPGQGLEWMGIINPKSGDTSYAQKFQGRVTMTRDTSTSTVYMELNSLRSEDTAVYYCARDGYGSSARCLQLWGQGTLVTVSS
VL: SYVLTQPPSVSVAPGETARITCGGDNIGRKSVYWYQQKSGQAPVLVIYYDSDRPSGIPERFSGSNSGNTATLTISRVEAGDEADYYCQVWDGSSDHWVFGGGTKLTVL
notes: Monospecific IgG4PE
In the assay with human factor X [4], B6 returned a dissociation constant (Kd) of 1360 nM, an off-rate (koff) of 0.0853 s⁻¹ and a kon of 62600 M⁻¹ s⁻¹. The equilibrium dissociation constant (Kd) with human factor X [7] was 100 nM.
